# Data as given in article PMC5218472 (PLoS Biology, 2017).
# B1: IL-6R / sIL-6R (interleukin-6 receptor): peptide 3(QD), GlcNAc at Asn-350 (protein)
# parent chain: MLAVGCALLAALLAAPGAALAPRRCPAQEVARGVLTSLPGDSVTLTCPGVEPEDNATVHWVLRKPAAGSHPSRWAGMGRRLLLRSVQLHDSGNYSCYRAGRPAGTVHLLVDVPPEEPQLSCFRKSPLSNVVCEWGPRSTPSLTTKAVLLVRKFQNSPAEDFQEPCQYSQESQKFSCQLAVPEGDSSFYIVSMCVASSVGSKFSKTQTFQGCGILQPDPPANITVTAVARNPRWLSVTWQDPHSWNSSFYRLRFELRYRAERSKTFTTWMVKDLQHHCVIHDAWSGLRHVVQLRAQEEFGQGEWSEWSPEAMGTPWTESRSPPAENEVSTPMQALTTNKDDDNILFRDSANATSLPVQDSSSVPLPTFLVAGGSLAFGTLLCIAIVLRFKKTWKLRALKEGKTSMHPPYSLGQLVPERPRPTPVLVPLISPPVSPSSLGSDNTSSHNRPDARDPRSPYDISNTDYFFPR
# B2: IL-6R / sIL-6R (interleukin-6 receptor): peptide 5(QD), biantennary N-glycan at Asn-350 (protein)
# parent chain: MLAVGCALLAALLAAPGAALAPRRCPAQEVARGVLTSLPGDSVTLTCPGVEPEDNATVHWVLRKPAAGSHPSRWAGMGRRLLLRSVQLHDSGNYSCYRAGRPAGTVHLLVDVPPEEPQLSCFRKSPLSNVVCEWGPRSTPSLTTKAVLLVRKFQNSPAEDFQEPCQYSQESQKFSCQLAVPEGDSSFYIVSMCVASSVGSKFSKTQTFQGCGILQPDPPANITVTAVARNPRWLSVTWQDPHSWNSSFYRLRFELRYRAERSKTFTTWMVKDLQHHCVIHDAWSGLRHVVQLRAQEEFGQGEWSEWSPEAMGTPWTESRSPPAENEVSTPMQALTTNKDDDNILFRDSANATSLPVQDSSSVPLPTFLVAGGSLAFGTLLCIAIVLRFKKTWKLRALKEGKTSMHPPYSLGQLVPERPRPTPVLVPLISPPVSPSSLGSDNTSSHNRPDARDPRSPYDISNTDYFFPR
# B3: IL-6R / sIL-6R (interleukin-6 receptor): peptide 8(QA), GalNAc at Thr-352 (protein)
# parent chain: MLAVGCALLAALLAAPGAALAPRRCPAQEVARGVLTSLPGDSVTLTCPGVEPEDNATVHWVLRKPAAGSHPSRWAGMGRRLLLRSVQLHDSGNYSCYRAGRPAGTVHLLVDVPPEEPQLSCFRKSPLSNVVCEWGPRSTPSLTTKAVLLVRKFQNSPAEDFQEPCQYSQESQKFSCQLAVPEGDSSFYIVSMCVASSVGSKFSKTQTFQGCGILQPDPPANITVTAVARNPRWLSVTWQDPHSWNSSFYRLRFELRYRAERSKTFTTWMVKDLQHHCVIHDAWSGLRHVVQLRAQEEFGQGEWSEWSPEAMGTPWTESRSPPAENEVSTPMQALTTNKDDDNILFRDSANATSLPVQASSSVPLPTFLVAGGSLAFGTLLCIAIVLRFKKTWKLRALKEGKTSMHPPYSLGQLVPERPRPTPVLVPLISPPVSPSSLGSDNTSSHNRPDARDPRSPYDISNTDYFFPR
# B4: IL-6R / sIL-6R (interleukin-6 receptor): peptide 4(QA), GlcNAc at Asn-350 (protein)
# parent chain: MLAVGCALLAALLAAPGAALAPRRCPAQEVARGVLTSLPGDSVTLTCPGVEPEDNATVHWVLRKPAAGSHPSRWAGMGRRLLLRSVQLHDSGNYSCYRAGRPAGTVHLLVDVPPEEPQLSCFRKSPLSNVVCEWGPRSTPSLTTKAVLLVRKFQNSPAEDFQEPCQYSQESQKFSCQLAVPEGDSSFYIVSMCVASSVGSKFSKTQTFQGCGILQPDPPANITVTAVARNPRWLSVTWQDPHSWNSSFYRLRFELRYRAERSKTFTTWMVKDLQHHCVIHDAWSGLRHVVQLRAQEEFGQGEWSEWSPEAMGTPWTESRSPPAENEVSTPMQALTTNKDDDNILFRDSANATSLPVQASSSVPLPTFLVAGGSLAFGTLLCIAIVLRFKKTWKLRALKEGKTSMHPPYSLGQLVPERPRPTPVLVPLISPPVSPSSLGSDNTSSHNRPDARDPRSPYDISNTDYFFPR
# B5: IL-6R / sIL-6R (interleukin-6 receptor): peptide 6(QA), biantennary N-glycan at Asn-350 (protein)
# parent chain: MLAVGCALLAALLAAPGAALAPRRCPAQEVARGVLTSLPGDSVTLTCPGVEPEDNATVHWVLRKPAAGSHPSRWAGMGRRLLLRSVQLHDSGNYSCYRAGRPAGTVHLLVDVPPEEPQLSCFRKSPLSNVVCEWGPRSTPSLTTKAVLLVRKFQNSPAEDFQEPCQYSQESQKFSCQLAVPEGDSSFYIVSMCVASSVGSKFSKTQTFQGCGILQPDPPANITVTAVARNPRWLSVTWQDPHSWNSSFYRLRFELRYRAERSKTFTTWMVKDLQHHCVIHDAWSGLRHVVQLRAQEEFGQGEWSEWSPEAMGTPWTESRSPPAENEVSTPMQALTTNKDDDNILFRDSANATSLPVQASSSVPLPTFLVAGGSLAFGTLLCIAIVLRFKKTWKLRALKEGKTSMHPPYSLGQLVPERPRPTPVLVPLISPPVSPSSLGSDNTSSHNRPDARDPRSPYDISNTDYFFPR
# B6: IL-6R / sIL-6R (interleukin-6 receptor): peptide 10(QA), biantennary N-glycan plus GalNAc (protein)
# parent chain: MLAVGCALLAALLAAPGAALAPRRCPAQEVARGVLTSLPGDSVTLTCPGVEPEDNATVHWVLRKPAAGSHPSRWAGMGRRLLLRSVQLHDSGNYSCYRAGRPAGTVHLLVDVPPEEPQLSCFRKSPLSNVVCEWGPRSTPSLTTKAVLLVRKFQNSPAEDFQEPCQYSQESQKFSCQLAVPEGDSSFYIVSMCVASSVGSKFSKTQTFQGCGILQPDPPANITVTAVARNPRWLSVTWQDPHSWNSSFYRLRFELRYRAERSKTFTTWMVKDLQHHCVIHDAWSGLRHVVQLRAQEEFGQGEWSEWSPEAMGTPWTESRSPPAENEVSTPMQALTTNKDDDNILFRDSANATSLPVQASSSVPLPTFLVAGGSLAFGTLLCIAIVLRFKKTWKLRALKEGKTSMHPPYSLGQLVPERPRPTPVLVPLISPPVSPSSLGSDNTSSHNRPDARDPRSPYDISNTDYFFPR
# B7: IL-6R / sIL-6R (interleukin-6 receptor): peptide 9(QD), biantennary N-glycan plus GalNAc (protein)
# parent chain: MLAVGCALLAALLAAPGAALAPRRCPAQEVARGVLTSLPGDSVTLTCPGVEPEDNATVHWVLRKPAAGSHPSRWAGMGRRLLLRSVQLHDSGNYSCYRAGRPAGTVHLLVDVPPEEPQLSCFRKSPLSNVVCEWGPRSTPSLTTKAVLLVRKFQNSPAEDFQEPCQYSQESQKFSCQLAVPEGDSSFYIVSMCVASSVGSKFSKTQTFQGCGILQPDPPANITVTAVARNPRWLSVTWQDPHSWNSSFYRLRFELRYRAERSKTFTTWMVKDLQHHCVIHDAWSGLRHVVQLRAQEEFGQGEWSEWSPEAMGTPWTESRSPPAENEVSTPMQALTTNKDDDNILFRDSANATSLPVQDSSSVPLPTFLVAGGSLAFGTLLCIAIVLRFKKTWKLRALKEGKTSMHPPYSLGQLVPERPRPTPVLVPLISPPVSPSSLGSDNTSSHNRPDARDPRSPYDISNTDYFFPR
# B8: IL-6R / sIL-6R (interleukin-6 receptor): peptide 7(QD), GalNAc at Thr-352 (protein)
# parent chain: MLAVGCALLAALLAAPGAALAPRRCPAQEVARGVLTSLPGDSVTLTCPGVEPEDNATVHWVLRKPAAGSHPSRWAGMGRRLLLRSVQLHDSGNYSCYRAGRPAGTVHLLVDVPPEEPQLSCFRKSPLSNVVCEWGPRSTPSLTTKAVLLVRKFQNSPAEDFQEPCQYSQESQKFSCQLAVPEGDSSFYIVSMCVASSVGSKFSKTQTFQGCGILQPDPPANITVTAVARNPRWLSVTWQDPHSWNSSFYRLRFELRYRAERSKTFTTWMVKDLQHHCVIHDAWSGLRHVVQLRAQEEFGQGEWSEWSPEAMGTPWTESRSPPAENEVSTPMQALTTNKDDDNILFRDSANATSLPVQDSSSVPLPTFLVAGGSLAFGTLLCIAIVLRFKKTWKLRALKEGKTSMHPPYSLGQLVPERPRPTPVLVPLISPPVSPSSLGSDNTSSHNRPDARDPRSPYDISNTDYFFPR
# B9: PVQA: IL-6R Asp358Ala variant (protein, UniProt P08887 20-468, looked up, variant D358A)
# Interleukin-6 receptor …: LAPRRCPAQEVARGVLTSLPGDSVTLTCPGVEPEDNATVHWVLRKPAAGSHPSRWAGMGRRLLLRSVQLHDSGNYSCYRAGRPAGTVHLLVDVPPEEPQLSCFRKSPLSNVVCEWGPRSTPSLTTKAVLLVRKFQNSPAEDFQEPCQYSQESQKFSCQLAVPEGDSSFYIVSMCVASSVGSKFSKTQTFQGCGILQPDPPANITVTAVARNPRWLSVTWQDPHSWNSSFYRLRFELRYRAERSKTFTTWMVKDLQHHCVIHDAWSGLRHVVQLRAQEEFGQGEWSEWSPEAMGTPWTESRSPPAENEVSTPMQALTTNKDDDNILFRDSANATSLPVQASSSVPLPTFLVAGGSLAFGTLLCIAIVLRFKKTWKLRALKEGKTSMHPPYSLGQLVPERPRPTPVLVPLISPPVSPSSLGSDNTSSHNRPDARDPRSPYDISNTDYFFPR
# How the values were obtained:
# [1] = in vitro peptide cleavage, 16 h, RP chromatography; settings: glycan gained
# ADAM10 = experiment: Ionomycin-induced ADAM10-mediated IL-6R ectodomain shedding in transiently transfected HEK293 cells, sIL-6R ELISA; assay type: cell-based, human; settings: normalised to PVQD Iono = 100, mean of n = 3
# Description: Analysis of IL-6R ectodomain shedding in transiently transfected HEK293 cells or stably transduced Ba/F3-gp130 cell lines by ADAM10 and ADAM17 has been described elsewhere. Analysis of IL-6R proteolysis by CG has been described previously.
# The sandwich ELISA, which detects sIL-6R as well as ds-sIL-6R (4-11/Baf227 antibodies) and can be used to quantify total sIL-6R serum levels, was described previously. To specifically detect ds-sIL-6R (either recombinant or in human serum), a similar approach was used (ds6R/Baf227). Both sandwich ELISAs were performed with streptavidin-horseradish peroxidase (R&D Systems, Minneapolis, Minnesota, US) and the peroxidase substrate BM blue POD (Roche, Mannheim, Germany). The enzymatic reaction was stopped by addition of 1.8 M sulfuric acid, and the absorbance read at 450 nm on a Tecan rainbow reader (Tecan, Crailsheim, Germany).
# Supplementary file pbio.2000080.s004.tif: S4 Fig Mutation of Val-356 is sufficient to block ADAM10-mediated proteolysis of the IL-6R and the Asp358Ala variant. (A) HEK293 cells were transiently transfected with Expression plasmids encoding the wildtype IL-6R (PV) or the double mutants (IE, DG) as indicated. Cells were either treated with 1 μM ionomycin for 1 h or DMSO as vehicle control. sIL-6R was precipitated from the supernatant with concanavalin A-covered Sepharose beads, and cells were lysed. Both were analyzed via Western blot, and β-actin served as loading control. One out of three experiments with similar outcome is shown. (B, C) The experiment was performed as described under (A), but sIL-6R generation was analyzed via ELISA. In (B), the amount of sIL-6R generated after ionomycin-stimulation of the wildtype IL-6R (PV) was set to 100%, and all other values were calculated accordingly. In (C), the amount of sIL-6R without stimulation was considered as constitutive shedding and set to 1 and the increase of sIL-6R was calculated. Data shown are the mean ± SD from at least three independent experiments (*p<0.05, ns = no significant difference). (D-F) HEK293 cells were transiently transfected with expression plasmids encoding the wildtype IL-6R (PV) or the single mutants (DV, IV, PE, PG) as indicated. The experiments were performed as described in (A) to (C). (G) ADAM10-mediated proteolysis of the IL-6R variants depicted in Fig 4I was analyzed as described in (B). (H) Equal numbers of Ba/F3-gp130-IL-6R_DG cells were incubated for 48 h with increasing amounts (0–100 ng/ml) of either IL-6 or Hyper-IL-6. One representative experiment out of three performed is shown (mean ± SD, biological triplicates). (TIF) Click here for additional data file.
# [2] = control: unglycosylated synthetic peptide 1(QD)
# [3] = control: unglycosylated synthetic peptide 2(QA), Asp358Ala
Molecule,"other: proteolytic processing, other: percent peptide intact [1, 2]","other: proteolytic processing, other: percent peptide intact [1, 3]",other results
B1,decreases,,
B2,abolishes,,
B3,,"decreases, 10.8% ± 5.4% vs 1.0% ± 1.0%",
B4,,"no change, 0.4% ± 0.7% vs 1.0% ± 1.0%",
B5,,no change,
B6,,"decreases, 14.7% ± 6.3% vs 1.0% ± 1.0%",
B7,abolishes,,
B8,decreases,,
B9,,,"sIL-6R shedding, Figure S4G, mean (ADAM10; treatment DMSO): 109.87; sIL-6R shedding, Figure S4G, mean (ADAM10; treatment Iono): 197.873"
